Substrate in the data set: O=[N+]([O-])c1ccc(OP(=O)(O)O)cc1
Put plainly: purified protein. The conditions noted are these: pH 8.0; 37.0 °C.

In paper PMC3662962 one finds Km and Vmax data, which are given here for two proteins.

Broadly, the Km is the substrate concentration at which the rate is half of its maximum. The Vmax is the rate approached at saturating substrate.

B1: PAS+phosphatase fusion protein (Mycobacterium tuberculosis H37Rv) (protein)
chain: MAAEMDWDKTVGAAEDVRRIFEHIPAILVGLEGPDHRFVAVNAAYRGFSPLLDTVGQPAREVYPELEGQQIYEMLDRVYQTGEPQSGSEWRLQTDYDGSGVEERYFDFVVTPRRRADGSIEGVQLIVDDVTSRVRARQAAEARVEELSERYRNVRDSATVMQQALLAASVPVVPGADIAAEYLVAAEDTAAGGDWFDALALGDRLVLVVGDVVGHGVEAAAVMSQLRTALRMQISAGYTVVEALEAVDRFHKQVPGSKSATMCVGSLDFTSGEFQYCTAGHPPPLLVTADASARYVEPTGAGPLGSGTGFPVRSEVLNIGDAILFYTDGLIERPGRPLEASTAEFADLAASIASGSGGFVLDAPARPIDRLCSDTLELLLRSTGYNDDVTLLAMQRR
As to B1, the Km was found to be 2.54 ± 0.35 mM and the Vmax was determined as 0.07 µmol/min/mg.

B2: RsbU phosphatase domain (Mycobacterium tuberculosis H37Rv) (protein)
chain: AAGGDWFDALALGDRLVLVVGDVVGHGVEAAAVMSQLRTALRMQISAGYTVVEALEAVDRFHKQVPGSKSATMCVGSLDFTSGEFQYCTAGHPPPLLVTADASARYVEPTGAGPLGSGTGFPVRSEVLNIGDAILFYTDGLIERPGRPLEASTAEFADLAASIASGSGGFVLDAPARPIDRLCSDTLELLLRSTGYNDDVTLLAMQRR
As to B2, the Km turned out to be 7.47 ± 1.22 mM and the Vmax is 0.07 µmol/min/mg.
